Results: PMC3185033, “Exportin 4 Interacts with Sox9 through the HMG Box and Inhibits the DNA Binding of Sox9” (PLoS ONE, 2011)
Values belong to the binder of their own block, whether it stands above or below them.

Target: T1, purified recombinant FLAG-Exp4 protein (human, UniProt Q9C0E2 1-1151)
T1 construct: human exportin 4, full-length cDNA assembled from three clones; also called recombinant Exp4; source: baculovirus system (pFASTBAC), purified recombinant
Assay: pull-down; GST-fused HMG box fragments incubated with purified recombinant FLAG-Exp4 and glutathione Sepharose 2 hr at 4°C; Western blot with anti-Exp4; no RanGTP
Conditions: both partners purified

T1 sequence (Q9C0E2 whole entry): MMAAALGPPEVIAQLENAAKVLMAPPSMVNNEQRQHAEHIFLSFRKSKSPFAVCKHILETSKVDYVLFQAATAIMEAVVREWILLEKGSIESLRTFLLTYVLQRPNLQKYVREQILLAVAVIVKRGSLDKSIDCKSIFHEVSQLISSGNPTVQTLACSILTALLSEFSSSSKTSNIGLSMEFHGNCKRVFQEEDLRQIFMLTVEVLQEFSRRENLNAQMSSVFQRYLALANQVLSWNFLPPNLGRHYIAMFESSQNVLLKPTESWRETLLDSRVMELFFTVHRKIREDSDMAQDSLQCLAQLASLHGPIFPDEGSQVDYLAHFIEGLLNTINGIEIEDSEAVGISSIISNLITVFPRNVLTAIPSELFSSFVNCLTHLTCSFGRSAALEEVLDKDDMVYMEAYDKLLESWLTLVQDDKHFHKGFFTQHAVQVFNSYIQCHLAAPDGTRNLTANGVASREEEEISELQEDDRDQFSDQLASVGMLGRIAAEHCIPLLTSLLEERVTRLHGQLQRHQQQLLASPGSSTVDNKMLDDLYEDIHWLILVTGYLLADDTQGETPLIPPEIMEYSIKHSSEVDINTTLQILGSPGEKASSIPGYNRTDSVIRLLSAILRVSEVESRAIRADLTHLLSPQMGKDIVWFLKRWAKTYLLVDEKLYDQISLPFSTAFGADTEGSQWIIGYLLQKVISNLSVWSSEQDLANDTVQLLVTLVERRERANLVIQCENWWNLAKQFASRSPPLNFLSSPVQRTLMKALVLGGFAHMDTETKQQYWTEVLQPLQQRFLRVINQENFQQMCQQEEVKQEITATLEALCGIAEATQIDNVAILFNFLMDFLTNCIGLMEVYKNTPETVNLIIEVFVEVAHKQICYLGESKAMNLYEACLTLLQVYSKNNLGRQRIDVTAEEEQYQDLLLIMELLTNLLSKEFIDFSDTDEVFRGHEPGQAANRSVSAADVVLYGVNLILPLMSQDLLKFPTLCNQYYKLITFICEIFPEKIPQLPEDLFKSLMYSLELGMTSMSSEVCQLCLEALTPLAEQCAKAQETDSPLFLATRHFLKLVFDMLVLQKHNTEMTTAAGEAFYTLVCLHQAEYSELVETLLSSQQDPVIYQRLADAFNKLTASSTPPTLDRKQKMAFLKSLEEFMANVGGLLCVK

binding result: binds
B1: GST-tagged HMG box fragment of Sox2 (33–123 a.a.) (domain or fragment)
chain: not shown
notes: source: E. coli, prepared on glutathione-Sepharose

binding result: binds
B2: GST-fused Sox9 region #2 (95–186 a.a.), HMG box domain (domain or fragment, mouse, UniProt Q04887 95-186, looked up)
chain: VNGSSKNKPHVKRPMNAFMVWAQAARRKLADQYPHLHNAELSKTLGKLWRLLNESEKRPFVEEAERLRVQHKKDHPDYKYQPRRRKSVKNGQ
notes: cloned in pGEX-6P-1; also called GST-tagged HMG box fragment of Sox9
